Assays:
Assay in all cases: MST
[1] = biological target: MBP-Mpp83Aa1 (native) (Bacillus thuringiensis)
[2] = biological target: MBP-Mpp83Aa1 modified with ABP5 at AA172-178 (Bacillus thuringiensis)
[3] = biological target: MBP-Mpp83Aa1 modified with ABP5 at AA224-230 (Bacillus thuringiensis)
[4] = biological target: MBP-Mpp83Aa1 modified with ABP5 at AA70-76 (Bacillus thuringiensis)

Q: How did the Kd [1] turn out when “Recombinant N. viridula aminopeptidase N (enzyme)” was run?
A: Its Kd is 139 nM.

Q: And the Kd [2]?
A: Its Kd is 4.98 nM.

Q: What about the Kd [3] of the same substance?
A: Its Kd is 187 nM.

Q: What about the Kd [4] of the same substance?
A: The Kd was 123 nM.
